The test system of data set [1] is developing rat cortical neurons. In words: Incubation of developing rat cortical neurons with peptide (necrotic bodies, neuron number). The note with it: 1 μM, vs control neurons, FIGS. 4A-4F.
Data set [2] has as its target T1, MKK7 binding to IB1 (SH3 domain) (Homo sapiens, UniProt Q9UQF2).
T1 construct: the SH3 domains of IB1 and IB2 were subcloned using PCR into the pGEX-4T1 vector in frame with the GST; made in house; host or cells: E. coli
T1 sequence (Q9UQF2 488-549 limits assumed): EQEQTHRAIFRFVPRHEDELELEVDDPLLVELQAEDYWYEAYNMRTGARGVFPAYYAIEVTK
Put plainly: Pull-down of 35S-labelled MKK7 with GST-SH3 domain of IB1. As to conditions: FIG. 2. The procedure:
(§1) Effects of the αSH3 peptide on JNK biological activities were then studied. […] In the pull-down experiments, the SH3 domains of IB1 and IB2 were subcloned using PCR into the pGEX-4T1 vector in frame with the GST (Pharmacia). The recombinant proteins were produced in E. Coli. Purification was performed in native conditions using a glutathione-agarose column (Pharmacia). ^35S-labelled MKK7 was then used in classical pull-down experiments.

The target in data set [3] is T2, MKK7 binding to IB2 (SH3 domain) (Homo sapiens, UniProt Q13387).
T2 construct: the SH3 domains of IB1 and IB2 were subcloned using PCR into the pGEX-4T1 vector in frame with the GST; made in house; host or cells: E. coli
T2 sequence (Q13387 604-665 limits assumed): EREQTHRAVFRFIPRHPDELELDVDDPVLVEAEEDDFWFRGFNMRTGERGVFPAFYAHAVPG
Put plainly: Pull-down of 35S-labelled MKK7 with GST-SH3 domain of IB2. The note with it: FIG. 2. The procedure: as §1

“Also recorded” adds a separate entry of the source. Residues, ends and D or L forms follow the SMILES beside them.

Regarding `CSCC[C@H](NC(=O)CNC(=O)[C@@H](NC(=O)[C@H](CO)NC(=O)[C@@H](NC(=O)[C@H](CO)NC(=O)[C@H](CCCNC(=N)N)NC(=O)[C@H](CCCNC(=N)N)NC(=O)[C@H](CCCNC(=N)N)NC(=O)[C@H](CCC(N)=O)NC(=O)[C@H](CCCNC(=N)N)NC(=O)[C@H](CCCNC(=N)N)NC(=O)[C@H](CCCCN)NC(=O)[C@H](CCCCN)NC(=O)[C@@H](N)CCCNC(=N)N)C(C)C)C(C)C)C(=O)N1CCC[C@H]1C(=O)N1CCC[C@H]1C(=O)N[C@@H](CO)C(=O)N1CCC[C@H]1C(=O)N[C@@H](CCCNC(=N)N)C(=O)N1CCC[C@H]1C(=O)O` [TAT-αSH3] (H-RKKRRQRRRSVSVGMPPSPRP-OH), in data set [1], the “Toxicity on developing neurons (appearance of residual necrotic bodies)” value was “lacked residual necrotic bodies; also recorded: not toxic”.
Consider “αSH3: consensus αSH3 sequence SVSVGMPPSPRP, 12 aa”, for which, in data set [2], the “Blocking of the binding of MKK7 to IB1” value is on record as “efficiently blocks”. The “Blocking of the binding of MKK7 to IB2” value in data set [3] is “efficiently blocks”.

These data come from US7803749B2, “Peptide inhibitors of MKK7 kinase binding to insulin binding proteins” (Xigen SA, priority 2002, dated 2010).
